Reference: IntAct's records for PubMed 19766572

B1: Peroxiredoxin-1 (Gallus gallus (Chicken)), P0CB50 (parent)
chain: MSSGKAFIGKPAPDFTATAVMPDGQFKDIKLSDYRGKYVVFFFYPLDFTFVCPTEIIAYSDRADEFKKINCEIIGASVDSHFCHLAWINTPKKQGGLGTMKIPLVSDTKRVIAKDYGVLKEDEGIAYRGLFIIDEKGILRQITINDLPVGRSVDETLRLVQAFQFTDKHGEVCPAGWKPGSDTIKPDVQKSKEYFSKQK
partner: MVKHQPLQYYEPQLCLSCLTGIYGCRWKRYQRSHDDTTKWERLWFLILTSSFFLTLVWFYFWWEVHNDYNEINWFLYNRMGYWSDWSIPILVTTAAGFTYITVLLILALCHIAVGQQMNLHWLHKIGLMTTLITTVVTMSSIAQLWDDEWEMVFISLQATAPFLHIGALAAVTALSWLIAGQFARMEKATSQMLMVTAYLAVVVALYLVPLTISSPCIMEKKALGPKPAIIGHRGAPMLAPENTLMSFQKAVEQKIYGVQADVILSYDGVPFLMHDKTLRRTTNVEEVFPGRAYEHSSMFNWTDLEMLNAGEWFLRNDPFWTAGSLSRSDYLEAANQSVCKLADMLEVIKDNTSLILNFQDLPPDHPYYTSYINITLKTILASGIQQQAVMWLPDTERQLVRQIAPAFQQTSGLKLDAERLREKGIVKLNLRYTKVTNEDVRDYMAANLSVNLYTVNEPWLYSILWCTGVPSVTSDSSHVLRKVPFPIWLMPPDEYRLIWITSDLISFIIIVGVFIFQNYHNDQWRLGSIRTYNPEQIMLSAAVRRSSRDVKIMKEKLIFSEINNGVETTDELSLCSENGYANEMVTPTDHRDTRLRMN

Variants of: B1
Details: with gdpd5_chick GDPD5, Q3KTM2

Row | Variant | effect of a mutation on the interaction
1 | MSSGKAFIGKPAPDFTATAVMPDGQFKDIKLSDYRGKYVVFFFYPLDFTFVSPTEIIAYSDRADEFKKINCEIIGASVDSHFCHLAWINTPKKQGGLGTMKIPLVSDTKRVIAKDYGVLKEDEGIAYRGLFIIDEKGILRQITINDLPVGRSVDETLRLVQAFQFTDKHGEVSPAGWKPGSDTIKPDVQKSKEYFSKQK [C52S;C173S] | disrupting interaction
